Columns and labels:
Test in all cases: flow cytometry
human SPNS2 R200A mutant = target: T1, human SPNS2 R200A mutant (human, UniProt Q8IVW8 1-549)
T1 sequence: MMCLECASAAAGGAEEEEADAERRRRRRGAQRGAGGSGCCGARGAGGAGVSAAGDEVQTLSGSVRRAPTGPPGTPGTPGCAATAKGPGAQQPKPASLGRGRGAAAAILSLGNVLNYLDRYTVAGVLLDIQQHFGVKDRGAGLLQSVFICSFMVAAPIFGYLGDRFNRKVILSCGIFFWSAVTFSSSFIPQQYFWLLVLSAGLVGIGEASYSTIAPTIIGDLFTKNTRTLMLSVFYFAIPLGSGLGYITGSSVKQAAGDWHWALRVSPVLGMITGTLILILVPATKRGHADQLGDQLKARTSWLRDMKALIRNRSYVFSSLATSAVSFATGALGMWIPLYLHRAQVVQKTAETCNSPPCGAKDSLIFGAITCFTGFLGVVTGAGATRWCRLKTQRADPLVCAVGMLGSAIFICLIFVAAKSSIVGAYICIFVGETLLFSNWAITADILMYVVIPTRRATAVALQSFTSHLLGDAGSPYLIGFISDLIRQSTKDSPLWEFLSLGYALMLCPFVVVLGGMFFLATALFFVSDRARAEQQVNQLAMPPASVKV

human SPNS2 K136A mutant = target: T2, human SPNS2 K136A mutant (human, UniProt Q8IVW8 1-549)
T2 sequence: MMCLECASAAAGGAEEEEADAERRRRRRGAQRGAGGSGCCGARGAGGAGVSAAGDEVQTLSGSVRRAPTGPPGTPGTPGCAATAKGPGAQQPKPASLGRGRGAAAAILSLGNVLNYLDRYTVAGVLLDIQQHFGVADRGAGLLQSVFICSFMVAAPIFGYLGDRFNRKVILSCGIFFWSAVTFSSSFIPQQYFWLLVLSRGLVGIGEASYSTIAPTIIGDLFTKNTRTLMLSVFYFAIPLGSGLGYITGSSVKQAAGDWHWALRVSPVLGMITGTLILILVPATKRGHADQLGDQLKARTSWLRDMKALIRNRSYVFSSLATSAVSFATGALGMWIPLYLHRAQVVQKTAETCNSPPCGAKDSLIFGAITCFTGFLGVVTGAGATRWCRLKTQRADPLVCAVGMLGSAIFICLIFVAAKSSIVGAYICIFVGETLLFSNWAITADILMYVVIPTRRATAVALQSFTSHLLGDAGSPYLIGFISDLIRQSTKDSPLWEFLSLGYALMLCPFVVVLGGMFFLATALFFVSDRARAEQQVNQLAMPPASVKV

human SPNS2 W259A mutant = target: T3, human SPNS2 W259A mutant (human, UniProt Q8IVW8 1-549)
T3 sequence: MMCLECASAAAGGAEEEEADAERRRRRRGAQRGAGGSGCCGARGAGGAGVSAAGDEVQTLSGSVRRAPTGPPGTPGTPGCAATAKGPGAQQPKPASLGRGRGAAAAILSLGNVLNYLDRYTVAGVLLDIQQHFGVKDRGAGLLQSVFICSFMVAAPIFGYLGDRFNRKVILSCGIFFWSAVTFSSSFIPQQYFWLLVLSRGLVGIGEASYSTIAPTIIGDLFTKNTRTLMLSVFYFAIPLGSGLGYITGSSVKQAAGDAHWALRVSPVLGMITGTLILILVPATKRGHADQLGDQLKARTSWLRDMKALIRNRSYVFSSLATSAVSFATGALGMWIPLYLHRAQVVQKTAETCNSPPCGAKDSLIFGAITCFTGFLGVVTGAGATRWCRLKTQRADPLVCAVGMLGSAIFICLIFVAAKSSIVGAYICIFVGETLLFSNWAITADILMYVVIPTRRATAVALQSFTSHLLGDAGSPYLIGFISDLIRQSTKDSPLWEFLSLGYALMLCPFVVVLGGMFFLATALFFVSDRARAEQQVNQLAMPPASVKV

human SPNS2 F133A mutant = target: T4, human SPNS2 F133A mutant (human, UniProt Q8IVW8 1-549)
T4 sequence: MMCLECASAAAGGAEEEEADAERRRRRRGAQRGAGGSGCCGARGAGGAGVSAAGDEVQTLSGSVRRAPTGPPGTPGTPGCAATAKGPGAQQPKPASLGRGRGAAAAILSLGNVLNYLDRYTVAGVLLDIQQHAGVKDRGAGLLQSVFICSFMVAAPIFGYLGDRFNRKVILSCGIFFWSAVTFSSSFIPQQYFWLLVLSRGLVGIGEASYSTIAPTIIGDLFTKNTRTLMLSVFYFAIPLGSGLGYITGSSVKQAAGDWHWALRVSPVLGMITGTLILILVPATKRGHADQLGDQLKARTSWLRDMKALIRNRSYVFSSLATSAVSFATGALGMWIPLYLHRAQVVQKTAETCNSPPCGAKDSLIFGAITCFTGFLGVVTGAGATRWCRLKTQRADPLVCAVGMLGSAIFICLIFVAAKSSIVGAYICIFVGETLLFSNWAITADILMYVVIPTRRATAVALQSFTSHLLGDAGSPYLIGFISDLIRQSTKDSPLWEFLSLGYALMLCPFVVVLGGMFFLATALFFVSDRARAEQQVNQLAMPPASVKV

human SPNS2 Q130A mutant = target: T5, human SPNS2 Q130A mutant (human, UniProt Q8IVW8 1-549)
T5 sequence: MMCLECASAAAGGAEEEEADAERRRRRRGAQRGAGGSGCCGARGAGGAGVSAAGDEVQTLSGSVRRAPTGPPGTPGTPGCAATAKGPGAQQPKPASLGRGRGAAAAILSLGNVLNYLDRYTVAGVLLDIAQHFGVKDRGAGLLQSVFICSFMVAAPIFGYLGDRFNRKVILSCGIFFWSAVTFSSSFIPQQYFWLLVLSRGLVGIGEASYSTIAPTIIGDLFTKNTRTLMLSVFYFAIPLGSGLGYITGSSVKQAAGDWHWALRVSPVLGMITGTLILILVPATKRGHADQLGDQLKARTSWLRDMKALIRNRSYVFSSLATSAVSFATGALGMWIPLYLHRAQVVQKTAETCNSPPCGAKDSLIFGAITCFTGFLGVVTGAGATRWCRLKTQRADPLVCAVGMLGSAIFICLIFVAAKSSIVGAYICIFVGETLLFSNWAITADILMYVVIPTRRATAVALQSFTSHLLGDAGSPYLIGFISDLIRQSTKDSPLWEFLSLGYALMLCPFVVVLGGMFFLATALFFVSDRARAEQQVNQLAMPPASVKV

Measured: binding ratio vs native type

B1: 49-0703G (antibody, IgG2b, V domains shown)
VH: EVQLVESGGGLVQPGRSMKLSCAASGFTFSNHYMAWVRQAPTKGLEWVASISTGGGNTYYRDSVKGRFTISRDNAKSTLYLQMDSLRSEDTATYYCARQDYSNYMGGFAYWGQGTLVTVSS
VL: QFVLTQPNSVSTNLGSTVKLSCKRSTGNIGNNYVNWYQQYEGRSPTTMIYRDDERPDGVPDRFSGSIDRSSNSALLTINNVQTEDEADYFCQSFSNGMFIFAGGTQLTVL
< 0.5 ratio: all assays above

From patent US20210147523A1 (TEIJIN PHARMA, published 2021)
